Target: H1 hemagglutinin (A/New Caledonia/20/1999(H1N1)), recombinant HA trimer used for electron microscopy (influenza A virus A/New Caledonia/20/1999 (H1N1)) (UniProt Q6WG00)
Assay: cryo-EM structure

H1 hemagglutinin (A/New Caledonia/20/1999(H1N1)), recombinant HA trimer used for electron microscopy (from UniProt Q6WG00 1-565) (natural protein)
stoichiometry N: 3
